{
  "source": "patent US20220145298",
  "key": {"[1]": {"test_system": "TnsA(wt)BC + TniQ-Cascade transposition system (Aeromonas salmonicida)", "assay": "cell_activity", "conditions": "wild-type TnsA; native array and native target; no detectable transposition"}, "[2]": {"test_system": "TnsA(A125D)BC + TniQ-Cascade transposition system (Aeromonas salmonicida)", "assay": "cell_activity", "conditions": "native array, native A.s. target on F plasmid; transposition in E. coli, mate-out; TACC PAM"}},
  "data": [
    {"sequence": "AGGACUGGAAGAAAUCAUCCAAGUUGGGGACU / TCAGGACCGGAAGGTAGCAGCCAAGGCGGGGGACTCGAGTGCCGGGATGTGGCTGATGGGGCCACCAC / GTGGTGGCCCCATCAGCCACATCCCGGCACTCGAGTCCCCCGCCTTGGCTGCTACCTTCCGGTCCTGA [ffs wild-type guide (10 mismatches) ; ffs target]", "values": [
      {"measurement": "activity", "setting": "[1]", "result": 0, "unit": "%"},
      {"measurement": "activity", "setting": "[2]", "result": 0.0188, "unit": "%"}
    ]}
  ]
}
